# According to PMC4066585 (Journal of immunology (Baltimore, Md. : 1950), 2014):
# B1: mAb H17 (antibody, V domains shown)
# VH: EVQLQESGPSLVKPSQTLSLTCTVSGDSITSDYWNWIRQAPGKGLESMGYITYSGTTYYNPSLKSRVTISRDTSKNQYYMELSSLRSEDTATYYCARGVDYEPSYYFDYWGQGTLVTVSS
# VL: DIQMTQSPSSLSASVGDRVTITCSASQGISNYLNWYQQKPGKAPKLLIYYTSSLHSGVPSRFSGSGSGTDYSLTISSLQPEDIATYYCQQYSNLPWTFGQGTKVEIK
# B2: mAb 3E7 (antibody, V domains shown)
# VH: EVQLQESGPSLVKPSQTLSLTCSVTGDSITSDYWNWIRKFPGNKLESMGYITYSGTTYYNPSLKSRISITRDTSKNQYYLQLNSVTSEDTATYYCARGVDYEPSYYFDYWGQGTTLTVSS
# VL: DIQMTQTTSSLSASLGDRVTISCSASQGISNYLNWYQQKPDGTVKLLIYYTSSLHSGVPSRFSGSGSGTDYSLTISNLEPEDIATYYCQQYSNLPWTFGGGTKLEIK
# Legend:
# proenzyme C3bB = proenzyme C3bB (Homo sapiens, UniProt P01024;P00751); assay: SPR
# C3b = C3b (human, UniProt P01024); assay: SPR
# proenzyme C3bB, sequence (P00751 whole entry, looked up, chain 1 of 2): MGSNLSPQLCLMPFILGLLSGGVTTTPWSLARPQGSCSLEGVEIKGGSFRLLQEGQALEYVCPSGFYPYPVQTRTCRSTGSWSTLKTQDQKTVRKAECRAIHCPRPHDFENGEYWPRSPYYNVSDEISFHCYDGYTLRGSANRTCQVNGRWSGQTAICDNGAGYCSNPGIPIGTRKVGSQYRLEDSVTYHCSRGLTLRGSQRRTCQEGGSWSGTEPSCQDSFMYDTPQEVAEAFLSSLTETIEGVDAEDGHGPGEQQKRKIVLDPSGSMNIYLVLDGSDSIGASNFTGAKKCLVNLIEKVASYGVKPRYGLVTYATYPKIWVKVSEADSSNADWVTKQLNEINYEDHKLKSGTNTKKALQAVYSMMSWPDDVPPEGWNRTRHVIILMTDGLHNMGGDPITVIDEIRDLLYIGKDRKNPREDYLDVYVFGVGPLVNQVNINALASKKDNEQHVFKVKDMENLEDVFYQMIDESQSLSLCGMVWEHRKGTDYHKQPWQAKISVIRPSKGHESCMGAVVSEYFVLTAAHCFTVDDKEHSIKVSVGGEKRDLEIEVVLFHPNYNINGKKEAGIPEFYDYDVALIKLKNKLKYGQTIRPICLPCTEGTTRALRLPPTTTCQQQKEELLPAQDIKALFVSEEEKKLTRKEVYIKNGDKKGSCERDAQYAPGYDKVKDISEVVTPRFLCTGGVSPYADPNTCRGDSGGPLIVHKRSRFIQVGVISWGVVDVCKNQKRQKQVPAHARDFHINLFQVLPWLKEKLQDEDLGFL
# proenzyme C3bB, sequence (P01024 whole entry, looked up, chain 2 of 2): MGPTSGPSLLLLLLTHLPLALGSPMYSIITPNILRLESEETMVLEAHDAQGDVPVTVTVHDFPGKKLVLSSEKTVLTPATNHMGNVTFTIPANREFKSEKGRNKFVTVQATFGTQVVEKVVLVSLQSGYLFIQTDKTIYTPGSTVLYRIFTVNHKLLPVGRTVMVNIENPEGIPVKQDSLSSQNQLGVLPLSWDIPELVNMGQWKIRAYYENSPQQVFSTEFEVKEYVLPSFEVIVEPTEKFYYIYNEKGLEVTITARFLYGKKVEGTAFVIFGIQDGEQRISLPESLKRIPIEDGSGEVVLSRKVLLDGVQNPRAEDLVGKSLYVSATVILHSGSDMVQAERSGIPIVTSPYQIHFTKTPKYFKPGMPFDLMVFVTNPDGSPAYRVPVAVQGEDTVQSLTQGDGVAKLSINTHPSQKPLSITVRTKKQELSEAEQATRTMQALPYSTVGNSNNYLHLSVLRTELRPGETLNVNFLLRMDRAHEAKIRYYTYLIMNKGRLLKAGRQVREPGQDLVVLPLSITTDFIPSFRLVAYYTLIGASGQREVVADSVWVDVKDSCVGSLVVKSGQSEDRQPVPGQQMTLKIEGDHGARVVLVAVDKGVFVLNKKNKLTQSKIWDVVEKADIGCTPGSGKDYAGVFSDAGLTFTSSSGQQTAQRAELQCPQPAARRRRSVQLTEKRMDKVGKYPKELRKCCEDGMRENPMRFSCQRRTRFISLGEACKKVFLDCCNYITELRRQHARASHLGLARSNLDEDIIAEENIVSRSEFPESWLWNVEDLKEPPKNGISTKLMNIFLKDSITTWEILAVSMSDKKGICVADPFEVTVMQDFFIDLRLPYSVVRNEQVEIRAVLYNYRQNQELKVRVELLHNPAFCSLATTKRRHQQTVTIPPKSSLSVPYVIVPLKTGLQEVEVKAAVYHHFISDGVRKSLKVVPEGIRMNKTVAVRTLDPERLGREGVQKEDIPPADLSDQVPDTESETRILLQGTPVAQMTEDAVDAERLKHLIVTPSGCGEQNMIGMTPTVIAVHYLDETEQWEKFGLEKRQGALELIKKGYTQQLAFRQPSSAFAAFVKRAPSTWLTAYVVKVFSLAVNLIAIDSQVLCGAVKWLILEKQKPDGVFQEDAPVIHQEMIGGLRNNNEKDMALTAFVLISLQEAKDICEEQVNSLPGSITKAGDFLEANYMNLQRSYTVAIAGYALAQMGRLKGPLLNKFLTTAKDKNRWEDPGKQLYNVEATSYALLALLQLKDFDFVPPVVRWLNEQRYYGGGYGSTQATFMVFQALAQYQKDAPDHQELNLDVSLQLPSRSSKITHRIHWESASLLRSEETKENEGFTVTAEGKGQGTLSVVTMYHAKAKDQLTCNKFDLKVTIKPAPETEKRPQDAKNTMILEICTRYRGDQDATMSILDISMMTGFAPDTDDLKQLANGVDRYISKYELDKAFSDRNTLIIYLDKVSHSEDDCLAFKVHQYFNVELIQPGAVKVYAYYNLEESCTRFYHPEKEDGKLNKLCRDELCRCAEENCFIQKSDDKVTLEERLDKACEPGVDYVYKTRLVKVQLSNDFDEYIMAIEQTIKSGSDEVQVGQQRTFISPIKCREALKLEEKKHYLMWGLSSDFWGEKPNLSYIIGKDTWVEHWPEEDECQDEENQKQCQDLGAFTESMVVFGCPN
Binder,binding result (proenzyme C3bB),Kd (C3b) [nM]
B1,no binding (tested: 20 μg/ml),28
B2,no binding (tested: 20 μg/ml),–
